In the supplement of paper PMC10567573:
± gives the standard deviation.

Test: protein stability index of a GFP-peptide fusion (GPS, HEK-293T) (PSI 1-6); higher = more stable
[1] = treatment: DMSO, c terminus: a fixed tail appended
[2] = treatment: MLN4924 1 uM, 8 h, c terminus: a fixed tail appended
[3] = treatment: DMSO, c terminus: native
[4] = treatment: MLN4924 1 uM, 8 h, c terminus: native
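Also: 24-mer peptide tiles fused after GFP, lentivirally expressed, FACS-sorted into six equal bins by GFP/DsRed ratio, decoded by Illumina sequencing, PSI is the read-weighted mean bin number.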

Sequence | protein stability index [1] | protein stability index [2] | protein stability index [3] | protein stability index [4]
HTPTPFKNALEKYGPLKPLPQTPH [MYBL2] | 3.56 ± 0.28 | 3.91 ± 0.35 | – | –
HYSLLTSQPLDREATSHYIIELLA [PCDHGC5] | 2.36 ± 0.13 | 2.63 ± 0.32 | – | –
PAYATTRIRSQIGNTESELKKLAE [GDAP1] | 4.53 ± 0.095 | 4.53 ± 0.18 | – | –
YHSQDRYEFSSHITRGEHRFHMS [IKZF1] | – | – | 2.85 ± 0.39 | 2.86 ± 0.58
TIEERVNILFDFVKKKKEEGVIDS [EIF5] | 3.68 ± 0.065 | 3.39 ± 0.29 | – | –
QQACTHTKETEQLRSQLQTLKQQH [CCDC89] | 4.71 ± 0.17 | 4.65 ± 0.17 | – | –
YRRHVLGIVLQGPALCFAAAIFSL [TMEM175] | 2.93 ± 0.18 | 2.85 ± 0.39 | – | –
NPTQNVRTILLSVISLLNEPNTFS [CDC34] | 2.86 ± 0.54 | 2.95 ± 0.61 | – | –
LFFPVIYDVKYLMKSCKNLKGGLQ [CNOT7] | 2.72 ± 0.35 | 2.5 ± 0.28 | – | –
LPLLRQTAGKVLAHFYGVKLEGKV [ESRRA] | 2.26 ± 0.31 | 2.11 ± 0.18 | – | –
KTKTSEYPIIFVYYLRKGKKINSN [SPANXN3] | 2.37 ± 0.59 | 2.01 ± 0.49 | – | –
PDDSTSEDGIHTLTCALMLLNTDL [PSD2] | 3.12 ± 0.27 | 3.1 ± 0.34 | – | –
LPGLAGPSGEMVKSTTSLTSSSTS [MLH1] | 4.83 ± 0.17 | 4.82 ± 0.058 | – | –
TKRSTLIISGVSKVPIAQDELALS [C2CD2L] | 3.16 ± 0.17 | 3.14 ± 0.19 | – | –
QLKKCETRKLSPGKKRCKDIKRLL [SMG5] | 3.32 ± 0.51 | 3.22 ± 0.18 | – | –
SKRLAVPCKLEKMRILAHGELVLA [TLE6] | 2.26 ± 0.49 | 2.35 ± 0.45 | – | –
HMEEEVEDFLLKKPIVPTDGKRVI [CDC25A] | 4.68 ± 0.096 | 4.84 ± 0.24 | – | –
LFAIANGFSPSYEFFAVTRFLVGM [SLC22A15] | 3.06 ± 0.34 | 2.57 ± 1.3 | – | –
PVPATPILQLEECCTHNNSATLSW [TRIM9] | 3.27 ± 0.16 | 3.38 ± 0.18 | – | –
GNGALSNISDLPFLAENSAFPKMA [LCOR] | 3.72 ± 0.22 | 3.49 ± 0.17 | – | –
GGFAKCYEMTDLTNNKVYAAKIIP [PLK2] | 2.52 ± 0.38 | 2.81 ± 0.29 | – | –
PGACPALGTKSCSSSCAVHDLIFW [RTN3] | 2.35 ± 0.33 | 2.29 ± 0.39 | – | –

Sequence | protein stability index [1] | protein stability index [2] | protein stability index [3] | protein stability index [4]
TLDGYGIHPKSIDLDNYFTARRLL [NFE2L1] | 2.37 ± 0.41 | 2.28 ± 0.26 | – | –
KNKKSSTGEASENGLEDIDRILER [TCF25] | 5.22 ± 0.48 | 5.49 ± 0.18 | – | –
ILEFAEKEGMVSSGQNLLAVESQ [PTPN9] | – | – | 2.96 ± 0.65 | 3.03 ± 0.37
KGVDFQKFCMNGAALCALGKDCFL [ETS1] | 2.62 ± 0.4 | 2.09 ± 0.28 | – | –
VSSSEQLQSCQAEIIELRRTVNAL [KRT34] | 3.02 ± 0.2 | 2.77 ± 0.3 | – | –
VVKFVNFLLVNGFQTAIDIFEDRI [TRAF3IP2] | 2.33 ± 0.45 | 2.83 ± 0.59 | – | –
QEEMAEDPLTYKSRLMVVVKMDSS [RHOBTB2] | 3.45 ± 0.27 | 3.49 ± 0.24 | – | –
SRSNNMGIVGGFTQMIREGGARSL [SLC25A25] | 3.17 ± 0.27 | 3.47 ± 0.18 | – | –
DPTGPAGLGRPTPGLSQGPGKETL [EHMT1] | 5.17 ± 0.15 | 5.09 ± 0.13 | – | –
LLFSDKNVNSNLITWNRVVLLHGP [TRIP13] | 2.91 ± 0.79 | 2.28 ± 0.53 | – | –
KRNFISSKSKQPAGHRRPAGGIRE [C22orf31] | 4.07 ± 0.11 | 3.99 ± 0.22 | – | –
EQKRLERLQRKLVEPKHCFTSPDY [SDE2] | 3.25 ± 0.35 | 3.62 ± 0.26 | – | –
MNTEAEQQLLHHARNGNAEEVRQL [OSBPL1A] | 5.24 ± 0.28 | 5.47 ± 0.12 | – | –
PEAVDEDRSTEPDRLQVFHKRAIM [ATE1] | 4.8 ± 0.23 | 4.91 ± 0.12 | – | –
CAYRTHLVAGIGFYQHLLLYIQSH [SMG5] | 3.01 ± 0.63 | 3.34 ± 0.87 | – | –
LEFRKSMYEEEINETRRKHETRLV [LMNB1] | 4.02 ± 0.21 | 4.06 ± 0.25 | – | –
YRFYFYMWKFVSPLCMAVLTTASI [SLC6A17] | – | 4.42 ± 0.71 | – | –
AGKLRLLREMCALSFQEELLYWGI [KCNG1] | 2.88 ± 0.5 | 2.34 ± 0.24 | – | –
SSATTYFWYREALDISDSISESGG [SLC6A17] | 2.62 ± 0.46 | 2.73 ± 0.34 | – | –
LPSENLGKEPLDPDPSHSPSDKVG [TOR1AIP2] | 5.42 ± 0.22 | 5.494 ± 0.038 | – | –
SEEQLQEPITGWRKTVCHNGVLGL [LPCAT4] | 3.58 ± 0.45 | 3.64 ± 0.38 | – | –
KFDVLRAIELFHSYRETRRKEGIV [PTPN9] | 2.35 ± 0.079 | 1.91 ± 0.42 | – | –

Sequence | protein stability index [1] | protein stability index [2] | protein stability index [3] | protein stability index [4]
VAVCPIPAAGLDVTQPCGDCGTIQ [HDAC6] | 3.46 ± 0.24 | 3.81 ± 0.41 | – | –
MQATADSTKMDCVWSNWKSQAIDL [RTN1] | 3.17 ± 0.11 | 3.41 ± 0.36 | – | –
DPGQDLVPKQAIQVQEADEAGWGG [DLX1] | 5.18 ± 0.28 | 5.22 ± 0.4 | – | –
VGVFLDFESGSVSFLNVTKSSLIW [TRIM43] | 3.08 ± 0.73 | 2.506 ± 0.003 | – | –
DTVEIREVHERNDGIDPFPLLMNR [EFHC1] | 4.3 ± 0.15 | 4.42 ± 0.25 | – | –
VLEEQLVKAKEQIENYKKQTRNGL [FUT8] | 3.77 ± 0.1 | 3.89 ± 0.35 | – | –
ELDELASKAPVLTYGQPKQAPPAD [EFHC1] | 5.44 ± 0.25 | 5.59 ± 0.15 | – | –
FDVVVCDQVSACIPVFRLARRRKK [ALG2] | 2.59 ± 0.28 | 2.62 ± 0.2 | – | –
ETIQGFWLLTKIDHWNNEKERILL [TPRG1] | 2.59 ± 0.44 | 2.73 ± 0.59 | – | –
GRVLRKLPFLAHALYVQAPTVTIE [TRIP13] | 2.32 ± 0.54 | 2.05 ± 0.45 | – | –
EQRDQLERTKSRLVNTSENLSKSR [VTI1B] | 5.18 ± 0.31 | 5.01 ± 0.18 | – | –
MEVLAAETTSQQERLQAIAEKRKR [PALM] | 5.15 ± 0.27 | 5.23 ± 0.32 | – | –
ITWFKDFLPVDTSNNNGRIKQLRS [PTPRD] | 2.47 ± 0.52 | 2.96 ± 0.3 | – | –
VRGPLQDSSWYEPSAELVQTRMAV [ZNF232] | 2.96 ± 0.17 | 3.09 ± 0.24 | – | –
GNFESLDLAEFAKKQPWWRKLFGQ [FUNDC2] | 3.31 ± 0.24 | 3.29 ± 0.35 | – | –
HDKIRPISSIGQVQSYMEHYCNSS [SPACA9] | 3.6 ± 0.4 | 3.72 ± 0.18 | – | –
GSSDASGSYSSTMNGHQNGLDSPP [ESRRG] | 4.93 ± 0.13 | 4.99 ± 0.27 | – | –
IQYNRRQLLILLQNCTDEGEREAI [POP5] | 2.74 ± 0.3 | 2.78 ± 0.51 | – | –
RYLLCELVSDDPRCRLSLDDRVLS [POP5] | 2.31 ± 0.25 | 2.36 ± 0.27 | – | –
FSGTDWMLEKMDLKEFDLDALLGI [ATF4] | 2.33 ± 0.11 | 2.5 ± 0.49 | – | –
EKEKEKHKVKAEEEKKAKVAPPAK [BRD3] | 5.38 ± 0.34 | 5.56 ± 0.14 | – | –
